Assay results as given in article PMC3851519 (Developmental cell, 2013).

Assays:
T7-SOCS6 = target: T1, T7-SOCS6 (UniProt Q9JLY0 1-533); experiment: pull-down
T1 sequence (looked up): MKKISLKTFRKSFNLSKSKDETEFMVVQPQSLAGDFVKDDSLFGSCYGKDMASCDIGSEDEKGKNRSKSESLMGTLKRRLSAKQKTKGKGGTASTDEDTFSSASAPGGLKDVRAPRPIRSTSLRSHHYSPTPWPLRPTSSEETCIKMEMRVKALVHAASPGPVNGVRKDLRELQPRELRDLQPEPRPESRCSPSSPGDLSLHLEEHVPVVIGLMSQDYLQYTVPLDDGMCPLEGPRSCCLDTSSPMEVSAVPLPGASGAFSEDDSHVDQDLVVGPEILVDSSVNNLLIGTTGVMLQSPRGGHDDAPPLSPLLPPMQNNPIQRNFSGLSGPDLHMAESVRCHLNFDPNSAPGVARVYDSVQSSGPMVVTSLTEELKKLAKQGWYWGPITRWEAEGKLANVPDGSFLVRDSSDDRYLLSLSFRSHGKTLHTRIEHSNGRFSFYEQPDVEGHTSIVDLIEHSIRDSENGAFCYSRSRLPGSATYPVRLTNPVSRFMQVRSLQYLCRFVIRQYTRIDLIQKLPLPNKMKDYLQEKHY

T7-SOCS7 WT = target: T2, T7-SOCS7 WT (UniProt Q8VHQ2 1-579); experiment: pull-down
T2 sequence (looked up): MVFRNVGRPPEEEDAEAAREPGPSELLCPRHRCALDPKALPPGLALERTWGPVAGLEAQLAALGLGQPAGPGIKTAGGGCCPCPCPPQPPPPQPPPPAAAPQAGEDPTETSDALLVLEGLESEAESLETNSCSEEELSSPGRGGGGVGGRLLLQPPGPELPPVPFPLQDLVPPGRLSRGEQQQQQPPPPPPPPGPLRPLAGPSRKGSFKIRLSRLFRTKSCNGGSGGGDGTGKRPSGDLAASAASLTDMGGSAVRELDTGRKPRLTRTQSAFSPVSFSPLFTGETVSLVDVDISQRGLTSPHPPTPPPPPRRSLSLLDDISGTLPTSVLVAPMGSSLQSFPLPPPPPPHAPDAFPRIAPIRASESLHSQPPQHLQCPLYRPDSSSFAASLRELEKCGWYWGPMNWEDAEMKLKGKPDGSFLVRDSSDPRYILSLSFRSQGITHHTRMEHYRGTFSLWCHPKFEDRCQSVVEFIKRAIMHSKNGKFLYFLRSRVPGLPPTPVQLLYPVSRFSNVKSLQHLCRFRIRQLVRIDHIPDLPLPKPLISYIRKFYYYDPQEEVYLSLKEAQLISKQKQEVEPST

fold pY.Dab1 bound against SOCS4, 5 or CISH (T7-SOCS6): ~10 fold | fold pY.Dab1 bound against SOCS4, 5 or CISH (T7-SOCS7 WT): ~10 fold
B1: tyrosine-phosphorylated Dab1-EGFP (natural protein, UniProt P97318 1-588, looked up)
chain: MSTETELQVAVKTSAKKDSRKKGQDRSEATLIKRFKGEGVRYKAKLIGIDEVSAARGDKLCQDSMMKLKGVVAGARSKGEHKQKIFLTISFGGIKIFDEKTGALQHHHAVHEISYIAKDITDHRAFGYVCGKEGNHRFVAIKTAQAAEPVILDLRDLFQLIYELKQREELEKKAQKDKQCEQAVYQTILEEDVEDPVYQYIVFEAGHEPIRDPETEENIYQVPTSQKKEGVYDVPKSQPNSQPLEDFESRFAAATPNRNLSMDFDELLEATKVSAVTQLELFGDMSTPPDITSPPTPATPGDAFLPSSSQTLPGSADVFGSMSFGTAAVPSGYVAMGAVLPSFWGQQPLVQQQIAMGAQPPVAQVIPGAQPIAWGQPGLFPATQQAWPTVAGQFPPAAFMPTQTVMPLAAAMFQGPLTPLATVPGTNDSARSSPQSDKPRQKMGKESFKDFQMVQPPPVPSRKPDQPSLTCTSEAFSSYFNKVGVAQDTDDCDDFDISQLNLTPVTSTTPSTNSPPTPAPRQSSPSKSSASHVSDPTADDIFEEGFESPSKSEEQEAPDGSQASSTSDPFGEPSGEPSGDNISPQDGS
modifications: phosphotyrosine (sites not given; phosphorylated by co-transfected Fyn)
